# Laboratory results: paper PMC8371249
# Key:
# [1] = molecular target: apo-SufR (clusterless Mtb SufR, Rv1460) (Mycobacterium tuberculosis); test: SEC
# [2] = molecular target: holo-SufR (Mtb SufR, Rv1460, with its 4Fe–4S cluster) (Mycobacterium tuberculosis); test: SEC
Substance,stoichiometry N [1],stoichiometry N [2]
"apo-SufR (clusterless Mtb SufR, Rv1460) (natural protein)",2,
"holo-SufR (Mtb SufR, Rv1460, with its 4Fe–4S cluster) (natural protein)",,2
